Experimental data: the FLAb antibody collection (doi:10.7554/elife.23156)

B1: scFv; the commonest letter at each place (parent)
chain 1: EVKLDETGGGLVQPGRPMKLSCVASGFTFSDYWMNWVRQSPEKGLEWVAQIRNKPYNYETYYSDSVKGRFTISRDDSKSSVYLQMNNLRVEDMGIYYCTGSYYGMDYWGQGTSVTVS
chain 2: DVVMTQTPLSLPVSLGDQASISCRSSQSLVHSNGNTYLRWYLQKPGQSPKVLIYKVSNRFSGVPDRFSGSGSGTDFTLKISRVEAEDLGVYFCSQSTHVPWTFGGGTKLEIK

How the values were obtained:
[1] = variants of: B1; assay: Kd (Tite-Seq); conditions: with fluorescein; format: scFv 4-4-20, heavy + light
[2] = variants of: B1; assay: yeast surface expression (ratio to wild type); higher = more expressed; conditions: format: scFv 4-4-20, heavy + light

| Variant | Kd [1] [µM] | yeast surface expression [2] |
| --- | --- | --- |
| chain 1 W108S G109N | ≥ 10 | 0.413 |
| chain 1 T28H Y32I | ≥ 10 | 0.92 |
| chain 1 D31L Y32A | 0.0944 | 0.73 |
| chain 1 G100P G109A | ≥ 10 | 0.3 |
| chain 1 G100P G109S | ≥ 10 | 0.485 |
| chain 1 S30P V37S | 0.000939 | 0.74 |
| chain 1 G100S Y103L W108N | ≥ 10 | 0.26 |
| chain 1 D31G M34C N35L | ≥ 10 | 0.825 |
| chain 1 G100E S101V | ≥ 10 | 0.225 |
| chain 1 G104D G109L | ≥ 10 | 0.236 |
| chain 1 S101G Y103C | ≥ 10 | 0.678 |
| chain 1 W33R M34D | ≥ 10 | 0.356 |
| chain 1 S101C G104V D106F | ≥ 10 | 0.361 |
| chain 1 Y103H G104F | ≥ 10 | 0.477 |
| chain 1 G104F | ≥ 10 | 0.597 |
| chain 1 G104N | ≥ 10 | 1.1 |
| chain 1 G104I | ≥ 10 | 0.325 |
| chain 1 G100F Y107T | ≥ 10 | 0.842 |
| chain 1 Y32S W33F | ≥ 10 | 0.984 |
| chain 1 S101W D106S | ≥ 10 | 0.516 |
| chain 1 M105H W108D | ≥ 10 | 0.353 |
| chain 1 M34E W36M | ≥ 10 | 0.428 |
| chain 1 Y102E Y103A | 5.1 | 0.993 |
| chain 1 Y102Q G109D | ≥ 10 | 0.485 |

| Variant | Kd [1] [µM] | yeast surface expression [2] |
| --- | --- | --- |
| chain 1 T28S S30I | 0.00708 | 0.741 |
| chain 1 F29G W36M | ≥ 10 | 0.478 |
| chain 1 Y107G G109V | ≥ 10 | 0.273 |
| chain 1 Y103V G104W | ≥ 10 | 0.419 |
| chain 1 M34E | ≥ 10 | 0.617 |
| chain 1 Y103V G109L | ≥ 10 | 0.247 |
| chain 1 G100T G104V D106E | ≥ 10 | 0.398 |
| chain 1 Y107W | 0.000846 | 1.11 |
| chain 1 S101Q G104V | ≥ 10 | 0.296 |
| chain 1 W33M V37E | 0.0657 | 0.701 |
| chain 1 W33P N35Y | 0.205 | 0.393 |
| chain 1 G100T | 0.921 | 0.994 |
| chain 1 M105V W108H | ≥ 10 | 0.493 |
| chain 1 Y32W | ≥ 10 | 0.805 |
| chain 1 Y32M | 0.972 | 1.03 |
| chain 1 S101K Y102I | ≥ 10 | 0.647 |
| chain 1 F29E Y32V | ≥ 10 | 0.811 |
| chain 1 N35Q W36M | ≥ 10 | 0.504 |
| chain 1 T28Q N35P | 0.832 | 0.622 |
| chain 1 F29Q Y32E W33S | ≥ 10 | 0.761 |
| chain 1 Y102V W108A | 0.021 | 0.315 |
| chain 1 Y102V W108Y | 0.000504 | 0.855 |
| chain 1 D31H W33P | ≥ 10 | 0.631 |
| chain 1 G100L S101K | ≥ 10 | 0.461 |

| Variant | Kd [1] [µM] | yeast surface expression [2] |
| --- | --- | --- |
| chain 1 S101V G109P | ≥ 10 | 0.223 |
| chain 1 N35M V37Y | ≥ 10 | 0.798 |
| chain 1 D106W G109V | ≥ 10 | 0.0997 |
| chain 1 M34N W36A | ≥ 10 | 0.608 |
| chain 1 G100Y G109P | ≥ 10 | 0.22 |
| chain 1 S101L Y103I | ≥ 10 | 0.229 |
| chain 1 Y32T V37G | ≥ 10 | 1.64 |
| chain 1 G100W W108V | 0.15 | 0.251 |
| chain 1 F29Q S30D Y32A | ≥ 10 | 0.934 |
| chain 1 S30A W33N | ≥ 10 | 0.914 |
| chain 1 S30M M34L | 0.00299 | 0.94 |
| chain 1 Y32A W33C | ≥ 10 | 0.924 |
| chain 1 T28P W36Y | 0.00422 | 1.05 |
| chain 1 S30N W33D | ≥ 10 | 1.05 |
| chain 1 G100F G109K | ≥ 10 | 0.265 |
| chain 1 M105N G109C | ≥ 10 | 0.123 |
| chain 1 G100M G104P D106I | ≥ 10 | 0.361 |
| chain 1 T28I D31F | 0.00166 | 0.526 |
| chain 1 G104W M105R | ≥ 10 | 0.484 |
| chain 1 F29T M34N | ≥ 10 | 0.548 |
| chain 1 Y32L M34A | ≥ 10 | 0.634 |
| chain 1 Y103D G109D | ≥ 10 | 0.542 |
| chain 1 Y103I Y107F W108D | ≥ 10 | 0.437 |
| chain 1 M34V V37D | 3.74 | 0.584 |

| Variant | Kd [1] [µM] | yeast surface expression [2] |
| --- | --- | --- |
| chain 1 F29T D31N | 0.0189 | 1.01 |
| chain 1 D31N V37I | 0.00325 | 0.855 |
| chain 1 G100M M105F | ≥ 10 | 0.769 |
| chain 1 Y103W M105L G109W | ≥ 10 | 0.199 |
| chain 1 M34G N35H | ≥ 10 | 0.394 |
| chain 1 D106H | ≥ 10 | 0.557 |
| chain 1 D106S | 0.00279 | 1.16 |
| chain 1 G104R D106M | ≥ 10 | 0.275 |
| chain 1 F29D Y32K W33Y | 6.61 | 1.18 |
| chain 1 G100Y G104C | ≥ 10 | 0.183 |
| chain 1 G100S Y102T | 0.0233 | 0.74 |
| chain 1 Y103I W108C | 3.74 | 0.359 |
| chain 1 Y107G W108A | ≥ 10 | 0.528 |
| chain 1 S30G W36L | ≥ 10 | 0.597 |
| chain 1 S101N W108D | ≥ 10 | 0.399 |
| chain 1 W108D | ≥ 10 | 0.345 |
| chain 1 W108A | 0.00209 | 0.588 |
| chain 1 W108I | ≤ 0.000316 | 0.882 |
| chain 1 W108G | 0.102 | 0.48 |
| chain 1 Y103N G104F | ≥ 10 | 0.839 |
| chain 1 G100R D106V | ≥ 10 | 0.108 |
| chain 1 G104Q G109Q | ≥ 10 | 0.248 |
| chain 1 S101Q Y102D Y107P | ≥ 10 | 0.361 |
| chain 1 T28L M34D | ≥ 10 | 0.101 |

| Variant | Kd [1] [µM] | yeast surface expression [2] |
| --- | --- | --- |
| chain 1 G100V Y103R G104L | ≥ 10 | 0.88 |
| chain 1 D31M | 0.00194 | 0.58 |
| chain 1 T28I S30M | 0.00104 | 0.769 |
| chain 1 D106M Y107C | ≥ 10 | 0.228 |
| chain 1 D31Q Y32R V37Q | ≥ 10 | 0.133 |
| chain 1 F29I W33H | ≥ 10 | 0.763 |
| chain 1 Y32E W33K | ≥ 10 | 0.742 |
| chain 1 Y32V W33N | ≥ 10 | 1.16 |
| chain 1 N35I | ≥ 10 | 0.652 |
| chain 1 N35E | ≥ 10 | 0.802 |
| chain 1 S101Q M105S | ≥ 10 | 0.853 |
| chain 1 W33K M34T | ≥ 10 | 0.893 |
| chain 1 M105S G109C | ≥ 10 | 0.182 |
| chain 1 M34C V37I | 0.00708 | 0.76 |
| chain 1 G100W D106S W108L | ≥ 10 | 0.243 |
| chain 1 M105P W108S | ≥ 10 | 0.621 |
| chain 1 Y102G M105V | ≥ 10 | 1.02 |
| chain 1 S30N W36N | ≥ 10 | 0.265 |
| chain 1 G104C Y107F | ≥ 10 | 0.291 |
| chain 1 S30I V37C | 0.00135 | 0.464 |
